# What was measured:
# Test in all cases: AlphaScreen
# human FcγRIIc (human) = human FcγRIIc (human) (UniProt P31995)
# [1] = target: human V158 FcγRIIIa, extracellular region fused with GST (human) (UniProt P08637)
# human FcγRI (human) = human FcγRI (human) (UniProt P12314)
# [2] = target: human FcγRIIa H131 (human) (UniProt P12318)
# human FcRn (human) = human FcRn (human) (UniProt P55899)
# human FcγRIIb (human) = human FcγRIIb (human) (UniProt P31994)
# Sequence of UniProt P31994 (P31994 43-217 limits assumed): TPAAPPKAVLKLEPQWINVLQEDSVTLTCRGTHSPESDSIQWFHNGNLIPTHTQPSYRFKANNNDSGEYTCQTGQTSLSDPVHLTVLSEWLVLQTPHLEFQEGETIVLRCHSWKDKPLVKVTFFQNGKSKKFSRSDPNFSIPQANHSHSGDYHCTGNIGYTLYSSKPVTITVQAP
# Sequence of UniProt P08637 (P08637 17-208 F176V): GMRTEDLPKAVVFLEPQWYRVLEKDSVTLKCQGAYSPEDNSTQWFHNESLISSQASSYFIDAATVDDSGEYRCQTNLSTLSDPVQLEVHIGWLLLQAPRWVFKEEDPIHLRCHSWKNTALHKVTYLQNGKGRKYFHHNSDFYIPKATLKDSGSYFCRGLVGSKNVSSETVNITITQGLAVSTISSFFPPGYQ
# Sequence of UniProt P31995 (P31995 43-217 limits assumed): as the sequence (P31994 43-217 limits assumed) above
# Sequence of UniProt P55899 (P55899 24-297 limits assumed): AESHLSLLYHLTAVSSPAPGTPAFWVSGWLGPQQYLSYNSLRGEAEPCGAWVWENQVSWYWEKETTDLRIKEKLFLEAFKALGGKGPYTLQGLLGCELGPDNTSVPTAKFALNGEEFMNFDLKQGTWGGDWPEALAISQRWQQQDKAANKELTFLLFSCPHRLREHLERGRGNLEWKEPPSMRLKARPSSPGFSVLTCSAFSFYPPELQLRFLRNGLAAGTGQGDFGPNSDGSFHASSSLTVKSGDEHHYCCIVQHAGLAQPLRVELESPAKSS
# Sequence of UniProt P12314 (P12314 16-288 limits assumed): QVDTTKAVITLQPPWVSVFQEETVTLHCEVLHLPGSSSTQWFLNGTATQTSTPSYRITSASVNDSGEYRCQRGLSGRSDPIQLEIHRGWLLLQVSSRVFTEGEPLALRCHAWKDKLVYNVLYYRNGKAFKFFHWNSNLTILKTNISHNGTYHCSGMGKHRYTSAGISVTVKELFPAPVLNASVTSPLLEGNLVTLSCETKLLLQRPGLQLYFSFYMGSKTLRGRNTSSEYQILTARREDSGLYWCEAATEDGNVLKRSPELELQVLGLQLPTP
# Sequence of UniProt P12318 (P12318 36-218 limits assumed): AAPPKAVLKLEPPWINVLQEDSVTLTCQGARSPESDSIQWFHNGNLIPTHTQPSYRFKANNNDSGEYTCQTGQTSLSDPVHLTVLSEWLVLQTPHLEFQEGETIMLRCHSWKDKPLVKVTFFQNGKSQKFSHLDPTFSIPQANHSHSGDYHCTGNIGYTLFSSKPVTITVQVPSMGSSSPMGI
Fold WT (human FcγRIIc (human)),Fold WT [1],Fold WT (human FcγRI (human)),Fold WT [2],Fold WT (human FcRn (human)),Fold WT (human FcγRIIb (human)),Substance
1.22 fold,1.51 fold,1.77 fold,1.26 fold,0.64 fold,1.04 fold,Campath K222E (antibody)
17.8 fold,65.6 fold,4.53 fold,4.32 fold,5.66 fold,3.5 fold,Campath D221K (antibody)
0.62 fold,0.35 fold,0.44 fold,0.8 fold,0.58 fold,0.85 fold,Campath L234A (antibody)
0.83 fold,0.42 fold,0.15 fold,1.28 fold,1.19 fold,0.78 fold,Campath E233T (antibody)
0.15 fold,0.1 fold,0.15 fold,0.11 fold,1.41 fold,0.24 fold,Campath G236P (antibody)
0.78 fold,0.32 fold,0.17 fold,0.74 fold,0.99 fold,0.58 fold,Campath E233H (antibody)
1.52 fold,0.73 fold,0.38 fold,0.87 fold,1.19 fold,1.49 fold,Campath L234R (antibody)
1.09 fold,0.53 fold,0.43 fold,0.65 fold,0.62 fold,1.42 fold,Campath L234K (antibody)
1.15 fold,0.62 fold,0.35 fold,0.71 fold,0.53 fold,1.93 fold,Campath L235R (antibody)
0.58 fold,0.58 fold,0.5 fold,0.62 fold,0.52 fold,0.41 fold,Campath A231K (antibody)
0.54 fold,0.52 fold,0.53 fold,0.55 fold,0.6 fold,0.26 fold,Campath E233L (antibody)
1.34 fold,0.63 fold,0.42 fold,0.56 fold,0.96 fold,1.28 fold,Campath L235K (antibody)
0.29 fold,0.29 fold,0.78 fold,2.13 fold,1.52 fold,0.7 fold,Campath G236W (antibody)
0.39 fold,0.51 fold,0.19 fold,0.52 fold,0.61 fold,0.27 fold,Campath E233Q (antibody)
0.64 fold,0.46 fold,0.38 fold,0.79 fold,0.69 fold,0.89 fold,Campath L235M (antibody)
0.46 fold,0.48 fold,0.16 fold,0.5 fold,0.74 fold,0.34 fold,Campath E233N (antibody)
1.8 fold,0.88 fold,0.3 fold,1.09 fold,0.95 fold,1.69 fold,Campath E233I (antibody)
1.61 fold,0.75 fold,1.15 fold,1.68 fold,1.45 fold,1.59 fold,Campath P228Y (antibody)
0.71 fold,0.46 fold,0.1 fold,1.23 fold,0.93 fold,0.6 fold,Campath E233A (antibody)
3.68 fold,5.77 fold,0.55 fold,22.7 fold,1.77 fold,2.77 fold,Campath G236S (antibody)
0.99 fold,1.51 fold,2.97 fold,0.8 fold,0.76 fold,1.59 fold,Campath P232E (antibody)
0.47 fold,0.27 fold,0.14 fold,1.52 fold,1.35 fold,0.82 fold,Campath G236V (antibody)
0.4 fold,0.19 fold,–,0.34 fold,1.6 fold,0.79 fold,Campath G236M (antibody)
0.74 fold,1.21 fold,0.36 fold,1.21 fold,2.09 fold,0.94 fold,Campath E233G (antibody)

Fold WT (human FcγRIIc (human)),Fold WT [1],Fold WT (human FcγRI (human)),Fold WT [2],Fold WT (human FcRn (human)),Fold WT (human FcγRIIb (human)),Substance
0.84 fold,0.58 fold,0.23 fold,0.64 fold,0.9 fold,0.73 fold,Campath E233F (antibody)
0.65 fold,0.49 fold,0.64 fold,0.89 fold,0.55 fold,0.9 fold,Campath L234M (antibody)
0.34 fold,0.34 fold,0.77 fold,0.48 fold,0.66 fold,0.5 fold,Campath K222Y (antibody)
0.6 fold,0.35 fold,0.14 fold,0.75 fold,1.05 fold,0.36 fold,Campath E233R (antibody)
0.7 fold,0.35 fold,0.28 fold,0.86 fold,1.64 fold,0.82 fold,Campath E233W (antibody)
0.61 fold,0.5 fold,0.25 fold,0.71 fold,0.91 fold,0.37 fold,Campath E233V (antibody)
0.85 fold,0.7 fold,0.29 fold,0.67 fold,1.13 fold,0.49 fold,Campath E233M (antibody)
0.8 fold,1.06 fold,0.34 fold,0.63 fold,0.78 fold,0.83 fold,Campath L235E (antibody)
0.54 fold,0.98 fold,1 fold,2.6 fold,1.77 fold,0.96 fold,Campath P228G (antibody)
0.37 fold,0.36 fold,0.17 fold,0.62 fold,1.1 fold,0.31 fold,Campath E233S (antibody)
3.48 fold,2.17 fold,0.7 fold,3.26 fold,2.54 fold,3.62 fold,Campath L234G (antibody)
0.78 fold,0.41 fold,0.34 fold,0.62 fold,0.97 fold,0.84 fold,Campath L235A (antibody)
4.74 fold,–,0.15 fold,5.01 fold,1.53 fold,3.77 fold,Campath G236D (antibody)
1.13 fold,1.28 fold,1.91 fold,1.31 fold,1.55 fold,1.14 fold,Campath P228K (antibody)
0.5 fold,0.32 fold,0.11 fold,0.9 fold,0.46 fold,0.77 fold,Campath L235W (antibody)
0.89 fold,0.78 fold,0.13 fold,1.16 fold,0.86 fold,1.16 fold,Campath L235P (antibody)
1.22 fold,0.56 fold,0.44 fold,0.4 fold,0.65 fold,0.85 fold,Campath P230Y (antibody)
0.96 fold,0.99 fold,1.91 fold,1.51 fold,0.68 fold,1.49 fold,Campath P232Y (antibody)
0.61 fold,0.77 fold,0.7 fold,0.87 fold,1.56 fold,0.85 fold,Campath P232K (antibody)
0.75 fold,0.48 fold,1.04 fold,0.99 fold,1.16 fold,1.13 fold,Campath P230G (antibody)
1.45 fold,0.65 fold,0.48 fold,45 fold,1.75 fold,1.05 fold,Campath G236A (antibody)
1.47 fold,–,2.07 fold,1.25 fold,1.01 fold,2.34 fold,Campath P230E (antibody)
0.48 fold,–,–,1.89 fold,1.56 fold,0.95 fold,Campath G236T (antibody)

# — patent WO2005092925A2
